Experimental findings from patent US20180162952A1 (AbbVie / Abbott, published 2018) are described below.

A value given as a limit tells only on which side of the number the result lay.

Assay [1] deals with T1, human PTK7, full length, expressed on transduced cells (human, UniProt Q13308 31-1070).
T1 sequence: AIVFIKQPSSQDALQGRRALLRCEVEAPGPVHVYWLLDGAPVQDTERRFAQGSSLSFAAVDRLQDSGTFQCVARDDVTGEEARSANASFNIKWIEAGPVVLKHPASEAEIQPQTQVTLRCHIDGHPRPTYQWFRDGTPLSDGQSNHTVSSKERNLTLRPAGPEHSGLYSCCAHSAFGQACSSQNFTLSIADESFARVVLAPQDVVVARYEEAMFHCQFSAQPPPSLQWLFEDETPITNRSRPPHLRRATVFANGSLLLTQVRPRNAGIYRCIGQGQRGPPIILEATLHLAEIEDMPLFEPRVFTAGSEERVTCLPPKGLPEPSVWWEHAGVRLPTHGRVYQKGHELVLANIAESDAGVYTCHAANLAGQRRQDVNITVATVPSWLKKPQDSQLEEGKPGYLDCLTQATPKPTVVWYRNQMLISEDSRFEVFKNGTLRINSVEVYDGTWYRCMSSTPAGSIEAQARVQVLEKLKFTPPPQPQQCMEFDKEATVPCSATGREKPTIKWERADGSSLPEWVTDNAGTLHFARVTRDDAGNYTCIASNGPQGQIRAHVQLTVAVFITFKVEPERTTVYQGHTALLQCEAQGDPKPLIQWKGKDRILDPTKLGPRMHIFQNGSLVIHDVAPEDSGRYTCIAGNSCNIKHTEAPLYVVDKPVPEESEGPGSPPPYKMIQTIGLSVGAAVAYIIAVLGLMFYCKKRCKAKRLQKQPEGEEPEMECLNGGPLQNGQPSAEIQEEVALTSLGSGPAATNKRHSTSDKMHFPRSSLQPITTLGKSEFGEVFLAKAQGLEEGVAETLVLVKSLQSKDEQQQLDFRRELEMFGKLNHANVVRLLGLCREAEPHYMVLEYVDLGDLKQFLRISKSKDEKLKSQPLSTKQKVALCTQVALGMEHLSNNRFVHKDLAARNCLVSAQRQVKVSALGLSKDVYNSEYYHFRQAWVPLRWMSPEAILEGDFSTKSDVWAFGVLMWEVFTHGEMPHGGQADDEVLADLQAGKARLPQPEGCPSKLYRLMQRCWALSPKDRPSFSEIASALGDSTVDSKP
The assay is described as follows: cell-based or functional assay.

Assay [2] has as its target T2, hPTK7-His (soluble His-tagged human PTK7 extracellular domain) (human, UniProt Q13308 31-704).
T2 construct: also called PTK7-ECD-His; monomeric recombinant hPTK7-His (isoform a)
T2 sequence: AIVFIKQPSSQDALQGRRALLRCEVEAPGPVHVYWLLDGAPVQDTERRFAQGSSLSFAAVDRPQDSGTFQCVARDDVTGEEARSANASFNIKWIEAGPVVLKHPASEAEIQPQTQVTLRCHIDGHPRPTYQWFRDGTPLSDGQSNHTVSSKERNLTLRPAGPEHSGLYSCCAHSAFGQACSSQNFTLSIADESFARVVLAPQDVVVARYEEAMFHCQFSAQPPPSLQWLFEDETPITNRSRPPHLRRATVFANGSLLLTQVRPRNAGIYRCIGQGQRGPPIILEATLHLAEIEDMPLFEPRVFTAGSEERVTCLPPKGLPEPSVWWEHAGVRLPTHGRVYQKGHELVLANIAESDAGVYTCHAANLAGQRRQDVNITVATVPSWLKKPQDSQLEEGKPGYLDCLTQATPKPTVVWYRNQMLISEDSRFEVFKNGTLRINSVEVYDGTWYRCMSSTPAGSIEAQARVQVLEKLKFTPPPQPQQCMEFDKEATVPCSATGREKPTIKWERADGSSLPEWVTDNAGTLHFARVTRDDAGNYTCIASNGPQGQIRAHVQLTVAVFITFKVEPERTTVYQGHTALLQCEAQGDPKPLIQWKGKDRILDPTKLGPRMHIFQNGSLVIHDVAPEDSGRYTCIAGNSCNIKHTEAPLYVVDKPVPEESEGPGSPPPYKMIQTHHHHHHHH
The assay is described as follows: SPR, Biacore, antigen at 25, 12.5 and 6.25 nM, 1:1 Langmuir model; humanized construct. In general terms: In SPR one partner is held on a chip, and binding of the other changes the refractive index at the surface.

Assay [3] has as its target T2, hPTK7-His (soluble His-tagged human …). Put plainly: Biacore (superscript B); column Affinity (nM).
Assay [4] has the same target. The assay is described as follows: Biacore (paragraph 369 names ForteBio for FIGS. 7C-7E).
Assay [5] has as its target T1, human PTK7, full length, expressed on …. The assay is described as follows: cell-based or functional assay. The source holds these as a separate data set.
Assay [6] concerns the target T3, murine PTK7-His (murine, UniProt Q8BKG3 23-696, limits assumed).
T3 construct: also called mouse PTK7-His; mouse PTK7
T3 sequence (looked up): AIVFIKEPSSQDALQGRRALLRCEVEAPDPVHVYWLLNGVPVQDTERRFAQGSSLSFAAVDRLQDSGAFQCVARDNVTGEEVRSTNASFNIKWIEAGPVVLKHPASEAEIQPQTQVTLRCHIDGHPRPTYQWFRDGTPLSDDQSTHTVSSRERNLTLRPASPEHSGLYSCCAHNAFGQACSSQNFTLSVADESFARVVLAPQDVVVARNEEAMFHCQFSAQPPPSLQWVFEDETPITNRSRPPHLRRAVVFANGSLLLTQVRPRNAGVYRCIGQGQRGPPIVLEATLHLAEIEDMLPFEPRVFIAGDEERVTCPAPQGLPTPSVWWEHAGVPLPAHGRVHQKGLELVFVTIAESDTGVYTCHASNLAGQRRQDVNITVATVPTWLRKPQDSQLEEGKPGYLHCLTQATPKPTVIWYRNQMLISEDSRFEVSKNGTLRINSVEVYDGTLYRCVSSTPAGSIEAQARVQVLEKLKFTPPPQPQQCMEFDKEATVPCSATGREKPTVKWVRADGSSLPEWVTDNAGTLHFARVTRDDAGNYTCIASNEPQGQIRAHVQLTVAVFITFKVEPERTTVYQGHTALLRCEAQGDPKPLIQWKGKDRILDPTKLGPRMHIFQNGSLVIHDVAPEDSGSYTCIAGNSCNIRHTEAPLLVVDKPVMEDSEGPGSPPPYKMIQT
Put plainly: ForteBio, concentration series of recombinant monomeric antigen.

Assay [7] addresses T2, hPTK7-His (soluble His-tagged human …). Put plainly: SPR, Biacore, antigen at 25, 12.5 and 6.25 nM, 1:1 Langmuir model; murine parent antibody.
Assay [8] has the same target. The assay is described as follows: ForteBio (superscript F); column Affinity (nM).

B1: hSC6.23 (antibody, V domains shown)
VH: QITLKESGPTLVKPTQTLTLTCTFSGFSLSTSNMGVGWIRQPPGKALEWLAHIWWDDDKYYSPSLKSRLTITKDTSKNQVVLTMTNMDPVDTATYYCVRSNYGYAWFAYWGQGTLVTVSS
VL: DIQMTQSPSSLSASVGDRVTITCKASQDIYPYLNWFQQKPGKAPKTLIYRTNRLLDGVPSRFSGSGSGTDFTFTISSLQPEDIATYYCLQYDEFPLTFGAGTKLEIK
notes: Humanized; also called humanized SC6.23
As for B1, the “reduction in viability of 293.PTK7 cells at 100 pM (Fab-ZAP human)” value (shortened to “reduction in viability of 293.PTK7 cells”) in assay [1] is over 80%. Further, binding in assay [2] was put at a Kd of 3900 pM.

B2: SC6.24 (antibody, V domains shown)
VH: QVQLQQSGPEVVRPGVSVKISCKGSGYTFTDYAVHWVKLSHAKSLEWIGVISTYNDYTYNNQDFKGKATMTVDKSSSTAYMELARLTSEDSAIYYCARGNSYFYALDYWGQGTSVTVSS
VL: DIVLTQSPASLAVSLGQRATISCRASESVDSYGKSFMHWYQQRPGQPPKLLIYRASNLESGIPARFSGSGSRTDFTLTINPVEADDVATYYCQQSNEDPWTFGGGTKLEIK
notes: Murine monoclonal antibody, kappa light chain
Take B2: the Kd in assay [3] and in assay [4] was 600 pM in each case. For the same molecule, the “EC50, saporin (Fab-ZAP) cell killing, 293.PTK7 Cells” value (from here on “EC50, saporin (Fab-ZAP) cell killing”) in assay [5] was 2.3 pM. Also, the binding result in assay [6] is given as “binds”.

B3: hSC6.58 (antibody, human IgG1, V domains shown)
VH: EVQLVESGGGLVQPGGSLRLSCAASGFDFSRYWMSWVRQAPGKGLEWIGDLNPDSSAINYVDSVKGRFTISRDNAKNSLYLQMNSLRAEDTAVYYCTLITTLVPYTMDFWGQGTSVTVSS
VL: ETTLTQSPAFMSATPGDKVNISCITNTDIDDDMNWYQQKPGEAAILLISEGNGLRPGIPPRFSGSGYGTDFTLTINNIESEDAAYYFCLQSDNLPLTFGSGTKLEIKR
notes: Humanized; also called humanized SC6.58
In turn, B3 returned an equilibrium dissociation constant (Kd) in assay [4] of 1000 pM. Moreover, in assay [1], the “reduction in viability of 293.PTK7 cells” value was over 80%.

B4: SC6.23 (antibody, V domains shown)
VH: QVTLKESGPGILKPSQTLSLTCSFSGFSLSTSNMGVGWIRQPSGKGLEWLAHIWWDDDKYYNPSLKSQLTISKDTSRNQVFLKITSVDTEDTATYYCVRSNYGYAWFAYWGQGTLVTVSA
VL: DIKMTQSPSSMYASLGERVTITCKASQDIYPYLNWFQQKPGKSPKTLIYRTNRLLDGVPSRFSGSGSGQDYSLTISSLDYEDMGIYYCLQYDEFPLTFGAGTKLELK
notes: Murine monoclonal antibody, kappa light chain; also called murine SC6.23
B4: in assay [5], the “EC50, saporin (Fab-ZAP) cell killing” value came out at 1.1 pM. Besides, the binding result in assay [6] is listed as “binds”. For the same molecule, in assay [7], the Kd came to 2300 pM.

B5: SC6.41 (antibody, V domains shown)
VH: EVQLQQSGAESVRSGASVKLSCTASGLNIKDYYMHWVNLRPEQGLEWIGWIDPENGDTEYAPEFQGKATMTADTSSNTAYLQLSSLTSEDTAVYYCNACNYGSAYGYWGQGTTLTVSS
VL: DIVLTQATPSVPVTPGESVSISCRSSKSLLHTKGDTYLYWFLQRPGQSPQLLIYRMSNLASGVPDRFSGSGSGTVFTLRISRVEAEDVGVYYCMQHLEYPFTFGSGTKLEIKR
notes: as for B2
For B5, the Kd in assay [3] and in assay [4] was 1000 pM throughout. For the same molecule, the “EC50, saporin (Fab-ZAP) cell killing” value in assay [5] came to 2.3 pM. For the same molecule, in assay [6], the binding result was “binds”.

B6: SC6.58 (antibody, V domains shown)
VH: EVKLLESGGGLVQPGGSLKLSCAASGFDFSRYWMSWVRQAPGKGLEWIGDLNPDSSAINYTPSLKDKFIISRDNAKNTLYLQMSKVRSEDTALYYCTLITTLVPYTMDFWGQGTSVTVSS
VL: ETTVTQSPASLSMAIGEKVTIRCITNTDIDDDMNWYQQKPGEPPKLLISEGNGLRPGVPSRFSSSGYGTDFVFTIENMLSEDVADYYCLQSDNLPLTFGSGTKLEIK
notes: as for B2
On to B6, for which the Kd in assay [3] and in assay [4] was 500 pM in each case. The “EC50, saporin (Fab-ZAP) cell killing” value in assay [5] was 10.4 pM. Moreover, in assay [6], the binding result was “binds”.

B7: hSC6.41 (antibody, human IgG1, V domains shown)
VH: QVQLVQSGAEVKKPGASVKVSCKASGYTFKDYYMHWVRQAPGQGLEWMGWIDPENGDTEYAPEFQGRVTMTRDTSTSTVYMELSSLRSEDTAVYYCNACNYGSAYGYWGQGTTLTVSS
VL: DIVMTQSPLSLPVTPGEPASISCRSSKSLLHTKGDTYLYWFLQKPGQSPQLLIYRMSNRASGVPDRFSGSGSGTDFTLKISRVEAEDVGVYYCMQHLEYPFTFGQGTKLEIKR
notes: Humanized; also called humanized SC6.41
As for B7, in assay [4], the Kd worked out at 2100 pM.

B8: hSC6.24 (antibody, human IgG1, V domains shown)
VH: QVQLVQSGPEVKKPGASVKVSCKASGYTFTDYAVHWVRQAPGKRLEWIGVISTYNDYTYNNQDFKGRVTMTRDTSASTAYMELSRLRSEDTAVYYCARGNSYFYALDYWGQGTSVTVSS
VL: EIVLTQSPATLSLSPGERATLSCRASESVDSYGKSFMHWYQQKPGQAPRLLIYRASNLESGIPARFSGSGSGTDFTLTISSLEPEDFAVYYCQQSNEDPWTFGGGTKLEIKR
As to B8, the “reduction in viability of 293.PTK7 cells” value in assay [1] was over 80%.

B9: SC6.21 (antibody, V domains shown)
VH: DVQLQESGPGLVKPSQTLSLTCSVPDYSITSDYHWHWIRQFPGNKLEWMGYISSRGSTNYNPSLKNRISITHDTSENQFFLKLTSVTTEDSATYYCAGLSQLALDYWGQGTTLTVSS
VL: DIVMSQSPSSLAVSVGEKVTLSCKSSQSLLYSSTQNNYLAWYQQTPGQSPKLLIYWASTRESGVPDRFTGSGSGTDFTLTISSVKAEDLAVYYCQQYYSYPWTFGGGTKLEIK
notes: Murine monoclonal antibody
Regarding B9, in assay [5], the “EC50, saporin (Fab-ZAP) cell killing” value stood at 30.6 pM. Also, the binding result in assay [6] was “binds”. Further, the equilibrium dissociation constant (Kd) in assay [8] was under 100 pM.

As a reminder, the Kd is the equilibrium constant for the complex coming apart.
